B1: HDV Ribozyme (parent)
chain: GGCCGGCAUGGUCCCAGCCUCCUCGCUGGCGCCGGCUGGGCAACAUUCCGAGGGGACCGUCCCCUCGGUAAUGGCGAAUGGGACCCA

Variants of: B1
Experiment: self-cleavage, relative activity (ratio to wild type); higher = more cleavage; co-transcriptional

Variant	self-cleavage
GGCCGGCAUGGUCCGAGCCUCCUCGCUGGCGCCGGCUGGGCAACAUUCCCAGGGGACCGUCCCCUCGGUAAUGGCGAAUGGGACCCA [C15G G50C]	0.575
GGCCGGCAUGGUCCCAGCCUCCUCGCUGGAGCCGGCUGGGCAACAUUCAGAGGGGACCGUCCCCUCGGUAAUGGCGAAUGGGACCCA [C30A C49A]	0.405
GGCCGGCAUAGUCCCAGCCUCCUCGCUGUCGCCGGCUGGGCAACAUUCCGAGGGGACCGUCCCCUCGGUAAUGGCGAAUGGGACCCA [G10A G29U]	0.0275
AGCCGGCAUGGUCCCAGCCUCCUCGCUGGCGCCGGCUGGGCAACAUUCCCAGGGGACCGUCCCCUCGGUAAUGGCGAAUGGGACCCA [G1A G50C]	0.302
GGCCGGCAUGGUCCCAGCCUCCUCGCUGGCGCCGGCUGGGCAACAUUCCGAGGGGACCGUCCCCUCUGUAAUGGCGACUGGGACCCA [G67U A78C]	0.223
GGCCGGCAUGGUCCCAGCCUCCUCGCUGGCGCCGGCUCGGCAACAUUCCGAGGGGACCGUCCCCUCGGUAAUGGCGAAUGUGACCCA [G38C G81U]	0.0779
GGCCGGCAUGGUCCCAGCCUCCUCGCUGGCGCCGGCUGUGCAACAUUCCGAGGGGACCGUCCCCUCGGUAAUGGCGAAUGCGACCCA [G39U G81C]	0.119
GGCCGGCAUGGUCCCAGCCUCCUCGCUGGCCCCGGCUGGGCAACAUUCCGAGGGGACCGUCCCCUCGGUAAGGGCGAAUGGGACCCA [G31C U72G]	0.128
GGCAGGCAUGGUCCCAGCCUCCUCGCUGGCGCCGGCUGGGCAACAUUCCGAGGGGACCGUCCCCUCGUUAAUGGCGAAUGGGACCCA [C4A G68U]	0.453
GGCCGGCAUGGUCCCAGCCUCCUCGCUGGCGCCGGCUGGGCUACUUUCCGAGGGGACCGUCCCCUCGGUAAUGGCGAAUGGGACCCA [A42U A45U]	0.554
GGCCGGCAUGGUCCCAGCCUCCUCGCUGGCGCCGGCUGGGCAACAUUCCGAGGAGACCGUCCCCUCGGUAAUGGCGAAUGGGCCCCA [G54A A83C]	0.277
GGCCGGCAUGGUCCCAGCCUCCUCGCUGGCGCCGGUUGGGCAGCAUUCCGAGGGGACCGUCCCCUCGGUAAUGGCGAAUGGGACCCA [C36U A43G]	0.196
GGCCGGCAUGGUCACAGCCUCCUCGCUGGCGCCGGCUGGGCAACAGUCCGAGGGGACCGUCCCCUCGGUAAUGGCGAAUGGGACCCA [C14A U46G]	0.525
GGCCGGCAUGGUCCCAGCCUCCUCGCUGGCGCCGGCUGGACAACAUUCCGAGGGGACCGUCCCCUCGUUAAUGGCGAAUGGGACCCA [G40A G68U]	0.997
CGCCGGCAUGGUCCCAGCCUCCUCGCUGGCGCCGGCUGGGCAACAUUCCGAGGGGACCGUCCCCUCGGUAAUGUCGAAUGGGACCCA [G1C G74U]	0.133
GGCCGGCAUGGUCUCGGCCUCCUCGCUGGCGCCGGCUGGGCAACAUUCCGAGGGGACCGUCCCCUCGGUAAUGGCGAAUGGGACCCA [C14U A16G]	1.21
GGCCGGCAUGGGCCCAGCCUCCUCGCUGGCGCCGGCUGGGCAACAUUCCGAGGGGACCGUCCCCUCGGUAAUGACGAAUGGGACCCA [U12G G74A]	0.18
GGCCGGCAUGUUCCCAGCCACCUCGCUGGCGCCGGCUGGGCAACAUUCCGAGGGGACCGUCCCCUCGGUAAUGGCGAAUGGGACCCA [G11U U20A]	0.0252
GGCCAGCAUGGUCCCAGCCUCCUCGCUGGCGCCGGCUGGACAACAUUCCGAGGGGACCGUCCCCUCGGUAAUGGCGAAUGGGACCCA [G5A G40A]	0.0992
GGCCGGCAUGGUCCCAGCCUCCUCGCUGGCGCCGGCUGGGCAACAUUCCGAGGGGACCAUCCCCUCCGUAAUGGCGAAUGGGACCCA [G59A G67C]	1.05
GGUCGGCAUGGUCCAAGCCUCCUCGCUGGCGCCGGCUGGGCAACAUUCCGAGGGGACCGUCCCCUCGGUAAUGGCGAAUGGGACCCA [C3U C15A]	0.481
GGCCGGCAUGGUCCCAUCCCCCUCGCUGGCGCCGGCUGGGCAACAUUCCGAGGGGACCGUCCCCUCGGUAAUGGCGAAUGGGACCCA [G17U U20C]	0.0573

Variant	self-cleavage
GGCCGGUAUGGUCCCAGCCUCCUCGCUGGCGUCGGCUGGGCAACAUUCCGAGGGGACCGUCCCCUCGGUAAUGGCGAAUGGGACCCA [C7U C32U]	0.394
GGCCGGCAUGGUCCCAGCCUCCUCGCUGGCGCCGGCGGGGCAACAUUCCGAGGGGACCGUCCCCUCGGUAAUGGAGAAUGGGACCCA [U37G C75A]	0.156
CGCCGGCGUGGUCCCAGCCUCCUCGCUGGCGCCGGCUGGGCAACAUUCCGAGGGGACCGUCCCCUCGGUAAUGGCGAAUGGGACCCA [G1C A8G]	0.123
GGCCGGCAUGGUCCCAGCCUCCUUGCUGGCGCCGGCUGGGCAACAUUCCGAGGGGACCGUCCCCUCGGUAAUGGCGUAUGGGACCCA [C24U A77U]	0.0791
GGCCGGCAUGGUCCCAGACUCCUCGCUGGCCCCGGCUGGGCAACAUUCCGAGGGGACCGUCCCCUCGGUAAUGGCGAAUGGGACCCA [C18A G31C]	0.163
GGCCGGCAGGGUCCCAGCCUCCUCGCUGGCGCCGGGUGGGCAACAUUCCGAGGGGACCGUCCCCUCGGUAAUGGCGAAUGGGACCCA [U9G C36G]	0.115
GGCCGGCAUGGUCCCAGCCUCCUCGCUAGCGCCGGCUGGGCAACAUUCCGAGGGGACCGUCCCCUCGGUAAUGCCGAAUGGGACCCA [G28A G74C]	0.0845
GGGCGGCAUGGUCCCAGCCUCCUCGCUGGCGCCGACUGGGCAACAUUCCGAGGGGACCGUCCCCUCGGUAAUGGCGAAUGGGACCCA [C3G G35A]	1.08
GGCCGGCAUGGUCCCAGCCUCCUCGCUGGCGCCGGCUGGGCAGCAUUCCGAGGGGACCGUCCCCUCGGUACUGGCGAAUGGGACCCA [A43G A71C]	1.01
GGCCGGCAUGGUCCCAGCCUCCUCGCUGGCGCCGGCUGGGCAACAUUCCGAGCGGACCGUCCCCUCGGUAAUGGGGAAUGGGACCCA [G53C C75G]	0.0627
GCCCGGCAUGGUCCCAGCCUCCUCGCUGGCGCCGGCUGGGCAACAUUCCGAGGGGACCGUUCCCUCGGUAAUGGCGAAUGGGACCCA [G2C C61U]	0.137
GGCCGGCAUGGUCCCAGCCUCCUCGCUGGCGCCUGCUGGUCAACAUUCCGAGGGGACCGUCCCCUCGGUAAUGGCGAAUGGGACCCA [G34U G40U]	0.0882
GGCCGGCAUGGUCCCAGCCUCCUCGAUGGCGCCGGCUGGGCAACAUUCCGAGGGGACCGUCCCCGCGGUAAUGGCGAAUGGGACCCA [C26A U65G]	0.646
GGCCGGCAUGGUCCCAACCUCCUCGCUGGCGCCGGCUGGGCAACAUUCCGAGGGGACCGUCCCCUCGGUAAUGACGAAUGGGACCCA [G17A G74A]	0.132
GGCCGGCAUGGUCCCAGACUCCUCGCUGGCGCCGGCUGGGCAACAUUCCGAGGGGACCGUCCCCUCGGUAAUCGCGAAUGGGACCCA [C18A G73C]	0.0396
GGCCGGCAUGGCCCCAGCCUCCUCGCUUGCGCCGGCUGGGCAACAUUCCGAGGGGACCGUCCCCUCGGUAAUGGCGAAUGGGACCCA [U12C G28U]	0.0378
GGCCGGCAUGGUCCCAGCCUCCUCGCUGGCGCCGGCUGGGCAACAUUCCGAGGGGACCGUCCCCUCGGUAAUGGCGAAAGAGACCCA [U79A G81A]	0.0773
GGACGGCAUGGUACCAGCCUCCUCGCUGGCGCCGGCUGGGCAACAUUCCGAGGGGACCGUCCCCUCGGUAAUGGCGAAUGGGACCCA [C3A C13A]	0.0329
GGCCGGCAUGGUCCCAGCCUCCUCGCUGGCGCCGGCUGGGCAACAUUCCGAGGGGACCGUCCCAUCGAUAAUGGCGAAUGGGACCCA [C64A G68A]	0.537
GGCCGGCAUAGUCCCAGCCUCCUCGCUGGCGCCGGCUGGGCAACAUUCCGAGGGGAUCGUCCCCUCGGUAAUGGCGAAUGGGACCCA [G10A C57U]	0.797
GGCCGGCAUGGUCCCAGCCCCCUCGCUGUCGCCGGCUGGGCAACAUUCCGAGGGGACCGUCCCCUCGGUAAUGGCGAAUGGGACCCA [U20C G29U]	0.0519
GGCCGGCAUGGUCCCAGCCUCCUCGCUGGCGCCGGCUGGGCAACAUUCCGUGGGGACCGUCCCCUCUGUAAUGGCGAAUGGGACCCA [A51U G67U]	0.816

Variant	self-cleavage
GGCCGGCAUGGUCCCAACCUCCUCGCUGGCGCCGGCUGGGCAACAUUCCGAGGGGACCGUCCCCUCGGUCAUGGCGAAUGGGACCCA [G17A A70C]	0.449
GGCCGGCAAGGUCCCAGCCUCCUCGCUGGCGCCGGGUGGGCAACAUUCCGAGGGGACCGUCCCCUCGGUAAUGGCGAAUGGGACCCA [U9A C36G]	0.369
GGCCGGCAUGGUCCCAGCCUCCUCGCUGGCGCCGGCUGGGCAUCAUUCCGAGGGGACCGUCCCCUCGUUAAUGGCGAAUGGGACCCA [A43U G68U]	0.299
GGCCGGCAUGGUCCCAGCCUGCUCGCUGGCGCCGGCUGGGCAACAUUCCGAGGGGACCGUCCCCUCGGUAAUAGCGAAUGGGACCCA [C21G G73A]	0.111
GGCCGGCAUGGUCCCAGCCUCCUCGCUGGCGCCGGCUGGGCAACAUUCCGAGGGGACUGUCCCCUCGGUAAUGGCGAAGGGGACCCA [C58U U79G]	0.612
AGACGGCAUGGUCCCAGCCUCCUCGCUGGCGCCGGCUGGGCAACAUUCCGAGGGGACCGUCCCCUCGGUAAUGGCGAAUGGGACCCA [G1A C3A]	0.0627
GGCCGGCAUGGUCCCAGGUUCCUCGCUGGCGCCGGCUGGGCAACAUUCCGAGGGGACCGUCCCCUCGGUAAUGGCGAAUGGGACCCA [C18G C19U]	0.0898
GGCCGACAUGGUCCCAGCCUCCUCGCUGGCGCCGGCUGGGCAACAUUCCGAGGGGACCGUCACCUCGGUAAUGGCGAAUGGGACCCA [G6A C62A]	0.543
GGCCGGCAUGGUCCCAGCCUCCUCGCUGGCGCCCGCUGGGCAAUAUUCCGAGGGGACCGUCCCCUCGGUAAUGGCGAAUGGGACCCA [G34C C44U]	0.0739
GGCCGGCAUGGUCCCCGCCUCCUCGCUGGCGCCGGCUCGGCAACAUUCCGAGGGGACCGUCCCCUCGGUAAUGGCGAAUGGGACCCA [A16C G38C]	0
GGCCGGCAUGGUCCCAGCCUACUCGCUGGCGCCGGCUGGCCAACAUUCCGAGGGGACCGUCCCCUCGGUAAUGGCGAAUGGGACCCA [C21A G40C]	0.111
GGCCGGCAUGGUCCCAGCCUCCUCGCUGGCGCCGGCUGGGGAACAUUCCGAGGGGACCUUCCCCUCGGUAAUGGCGAAUGGGACCCA [C41G G59U]	0.969
GGCCGGCAUGGUCCCAGCCUCCUCGCUGGCGCCGGCUGGGCAACAUUCCGAGGGUACCGUCCCCUCGGUAAUGGCGAAUGAGACCCA [G55U G81A]	0.287
GGCCGGCAUGCUCCCAGCCUCCUCGCUGGCGCCGGCUGGGCAACAUUCCGAGGGGACCGUCCCCUCGGUAAUGGCGAUUGGGACCCA [G11C A78U]	0.0437
GGCCGGCAUGGUCCAAGCCUCCUCGCUGGCGCCGGCUGGGCAACAUUCCGAGGGGACCGUCCCCUCGGUAAUGGCGCAUGGGACCCA [C15A A77C]	0.0978
GGCCGGCAUGGUCCCAGCCUCCUCGCUCGCGCGGGCUGGGCAACAUUCCGAGGGGACCGUCCCCUCGGUAAUGGCGAAUGGGACCCA [G28C C33G]	0.0519
GGCCGGCAUGGUCCCAGCCUCCUCGCUGGCGCCGGCUGGGCAACAUUCCGAGGGGACCGUCACCUCGGUAAUUGCGAAUGGGACCCA [C62A G73U]	0.212
GGCCGGCAUGGUCCCAGCCUCAUCGCUGGCGCCGGCUGGGCAACAGUCCGAGGGGACCGUCCCCUCGGUAAUGGCGAAUGGGACCCA [C22A U46G]	0.172
GGCCGGCAUGGUCCCAGCCUCCUCGCUGACGCCGGCGGGGCAACAUUCCGAGGGGACCGUCCCCUCGGUAAUGGCGAAUGGGACCCA [G29A U37G]	0.0723
GGCCGCCCUGGUCCCAGCCUCCUCGCUGGCGCCGGCUGGGCAACAUUCCGAGGGGACCGUCCCCUCGGUAAUGGCGAAUGGGACCCA [G6C A8C]	0
